Results taken from patent publication US20200317776A1 (published 2020).
Where two headings read alike, the source gives them in different places.

What was measured:
[1] = biological target: T1, human TREM2/DAP12 fusion protein (human, UniProt O43914 41-113, limits assumed); assay: cell-based or functional assay
[2] = biological target: T2, human TREM2 expressed on cells (human, UniProt Q9NZC2 19-230); assay: cell-based or functional assay
T2 sequence: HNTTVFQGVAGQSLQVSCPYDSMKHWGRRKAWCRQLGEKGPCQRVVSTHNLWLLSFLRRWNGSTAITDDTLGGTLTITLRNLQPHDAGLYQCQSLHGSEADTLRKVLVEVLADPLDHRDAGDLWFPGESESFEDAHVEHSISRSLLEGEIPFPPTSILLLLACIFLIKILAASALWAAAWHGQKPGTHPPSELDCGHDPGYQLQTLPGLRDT

[3] = biological target: T2, human TREM2 expressed on cells; assay: FACS, human DCs
Text: To examine cell binding of affinity matured anti-TREM2 antibodies, both primary human monocyte derived dendritic cells and recombinant, human TREM2 expressing cells were utilized. For the latter, BW5147.G.1.4 (ATCC® TIB48™) and HEK293T cells stably expressing human TREM2 together with Dap12 using viral infection were established. For primary human monocyte derived dendritic cells, human monocytes were isolated from whole blood using RosetteSep Human monocyte enrichment cocktail (Stemcell technologies) and Ficoll centrifugation per manufacturer protocols. After lysing red blood cells with ACK lysing buffer, monocytes were resuspended in complete media (RPMI, 10% FBS, Pen/Strep, L-glutamine, HEPES, non-essential amino acid, Sodium pyruvate) with 100 ng/ml human GM-CSF (hu-GMCSF) and, human IL-4 (hu-IL-4) to differentiate dendritic cells for 6 days.
Cells were harvested by trypsinization (Hek293T) or scraping (BW and dendritic cells), washed in PBS, counted and plated on 96-well U bottom plates at […] cells/well. The plates were spun at 1,400 rpm for 3 minutes and primary TREM2 or control antibodies were added in FACS buffer (PBS+2% FBS) and incubated on ice for one hour. Cells were subsequently centrifuged as before and washed thrice with FACS buffer. Cells were then incubated with anti-human PE conjugated secondary antibody (BD Biosciences) in FACS buffer for 30 minutes on ice. Cells were again washed thrice with FACS buffer and analyzed on a BD FACS Canto or an Intellicyt Flow Cytometer. Binding was measured as mean fluorescence intensity in the APC channel.

[4] = biological target: T2, human TREM2 expressed on cells; assay: FACS, hTREM2 BW cells
Method in brief: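 Cells were BW5147.G.1.4 stably expressing human TREM2 with Dap12, or human monocyte-derived dendritic cells differentiated 6 days with GM-CSF and IL-4. Antibodies bound 1 h on ice in PBS+2% FBS, then PE anti-human secondary 30 min on ice; flow cytometry read-out as mean fluorescence intensity.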

[5] = biological target: T3, human TREM2 Fc fusion (entire TREM2 ECD; only one Fc arm fused to TREM2) (human, UniProt Q9NZC2 19-174); assay: BLI, Fab, monovalent
T3 construct: also called huTREM2-Fc; recombinant hTREM2
T3 sequence: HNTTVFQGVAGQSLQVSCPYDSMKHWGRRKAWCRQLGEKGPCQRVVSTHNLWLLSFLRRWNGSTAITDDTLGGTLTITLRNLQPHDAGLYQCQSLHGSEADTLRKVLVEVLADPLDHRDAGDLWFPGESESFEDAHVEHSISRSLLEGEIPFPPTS

[6] = biological target: T4, cynomolgus monkey TREM2 Fc fusion (entire TREM2 ECD; only one Fc arm fused to TREM2) (cynomolgus monkey, UniProt Q9NZC2 19-174 (human entry)); assay: BLI, Fab, monovalent
T4 construct: also called cyno TREM2-Fc
T4 chain: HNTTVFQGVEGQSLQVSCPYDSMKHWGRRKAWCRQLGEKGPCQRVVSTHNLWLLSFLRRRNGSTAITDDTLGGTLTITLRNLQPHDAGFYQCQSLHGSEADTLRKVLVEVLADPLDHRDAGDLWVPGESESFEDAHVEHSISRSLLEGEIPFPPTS

[7] = biological target: T1, human TREM2/DAP12 fusion protein; assay: cell-based or functional assay; remark: listed apart in the source
[8] = biological target: T2, human TREM2 expressed on cells; assay: FACS, hTREM2 BW cells; remark: listed apart in the source
Description: To examine cell binding of anti-TREM2 antibodies, recombinant, human TREM2-expressing BW5147.G.1.4 cells (ATCC® TIB48™) were established by stably expressing either mouse TREM2 or human TREM2 together with Dap12 using viral infection. Cells were harvested by scraping, washed in PBS, counted and plated on 96-well U bottom plates at 1)(10⁵ cells/well. The plates were spun at 1,400 rpm for 3 minutes and primary anti-TREM2 or control antibodies were added in FACS buffer (PBS H2% FBS) and incubated on ice for one hour. Cells were subsequently centrifuged as before and washed thrice with FACS buffer. Cells were then incubated with anti-human PE conjugated secondary antibody (BD Biosciences) in FACS buffer for 30 minutes on ice. Cells were again washed thrice with FACS buffer and analyzed on a BD FACS Canto. Binding was measured as mean fluorescence intensity in the APC channel.

[9] = biological target: T3, human TREM2 Fc fusion (entire TREM2 …); assay: BLI, Fab, monovalent; remark: listed apart in the source
Description: Briefly, IgG's were loaded on-line onto AHQ sensors. Sensors were equilibrated off-line in assay buffer for 30 minutes and then monitored on-line for 60 seconds for baseline establishment. For avid binding measurement, sensors with loaded IgGs were exposed to 100 nM antigen (human TREM2 Fc fusion using the entire TREM2 ECD; only one Fc arm was fused to TREM2) for 3 minutes, afterwards they were transferred to assay buffer for 3 minutes for off-rate measurement. Monovalent binding measurements were obtained by loading human TREM2 Fe fusion antigens to AHQ sensor and followed by exposure to 100 nM TREM2 antibody Fab. Kinetics data were fit using a 1:1 binding model in the data analysis software provided by ForteBio. Assay was run at room temperature (25° C.).

T1 sequence (O43914 other isoform, or with tags, fused parts or gaps limits assumed): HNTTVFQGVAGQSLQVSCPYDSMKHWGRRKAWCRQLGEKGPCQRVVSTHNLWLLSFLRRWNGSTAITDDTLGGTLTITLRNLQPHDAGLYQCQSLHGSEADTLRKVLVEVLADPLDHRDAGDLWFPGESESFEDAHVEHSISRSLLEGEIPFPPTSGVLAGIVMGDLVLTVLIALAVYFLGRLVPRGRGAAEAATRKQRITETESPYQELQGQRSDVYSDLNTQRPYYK

| BW Luc assay plate bound 7.3 nM IgG, FOC [1] | BW Luc assay soluble 7.3 nM IgG, FOC [1] | MFI [3] | Kd [4] | Kd [5] | Kd [6] | Soluble luciferase activation at 10 µg/ml Fold over control [7] | cell binding (FOB) [8] | Kd [9] | Binder | DC viability (AUC) [2] | Mac viability (AUC) [2] |
| --- | --- | --- | --- | --- | --- | --- | --- | --- | --- | --- | --- |
| 1.53 FOC | 2.17 FOC | 235 MFI | 0.0023 µM | 0.0139 µM | 0.0168 µM |  |  |  | AL2p-54 (antibody, V domains shown, Fab and IgG formats under one id) VH: QVQLVQSGAEVKKPGSSVKVSCKASGYAFSSHWMNWVRQAPGQGLEWMGRIYPGEGDTNYAQKFHGRVTITADESTSTAYMELSSLRSEDTAVYYCARLLRNKPGESYAMDYWGQGTLVTVSS VL: DVVMTQTPLSLSVTPGQPASISCRTSQSLVHSNQYTYLHWYLQKPGQSPQLLIYKVSNRVSGVPDRFSGSGSGTDFTLKISRVEAEDVGVYYCSQSTRVPYTFGQGTKLEIK | 570000 AUC | -7640 AUC |
|  |  |  |  |  |  | 4.13 fold over control |  |  | AL2p-h36 (antibody, human IgG1, V domains shown) VH: EVQLLESGGGLVQPGGSLRLSCAASGYAFSSSWMNWVRQAPGKGLEWIGRIYPGDGDTNYAQKFQGRATISADTSKNTAYLQMNSLRAEDTAVYYCARLLRNQPGESYAMDYWGQGTLVTVSS VL: DVVMTQTPLSLSVTPGQPASISCRSSQSLVHSNGYTYLHWYLQKPGQSPQLLIYKVSNRFSGVPDRFSGSGSGTDFTLKISRVEAEDLGVYFCSQSTRVPYTFGQGTKLEIK |  |  |
|  |  |  |  |  |  | 5.59 fold over control |  |  | AL2p-h28 (antibody, human IgG1, V domains shown) VH: QVQLVQSGAEVKKPGASVKVSCKASGYAFSSSWMNWVRQAPGQGLEWIGRIYPGDGDTNYAQKFQGRATLTADTSTSTAYMELSSLRSEDTAVYFCARLLRNQPGESYAMDYWGQGTLVTVSS VL: DVVMTQTPLSLSVTPGQPASISCRSSQSLVHSNGYTYLHWYLQKPGQSPQLLIYKVSNRFSGVPDRFSGSGSGTDFTLKISRVEAEDLGVYFCSQSTRVPYTFGQGTKLEIK |  |  |
| 1.51 FOC | 2.02 FOC | 155 MFI | 0.00201 µM | 0.0187 µM | 0.0188 µM |  |  |  | AL2p-56 (antibody, V domains shown, same VH/VL entries as AL2p-55; Fab and IgG formats under one id) VH: EVQLVQSGAEVKKPGSSVKVSCKASGYAFSSHWMNWVRQAPGQGLEWMGRIYPGEGDTNYAQKFHGRVTITADESTSTAYMELSSLRSEDTAVYYCARLLRNKPGESYAMDYWGQGTLVTVSS VL: DVVMTQTPLSLSVTPGQPASISCRTSQSLVHSNAYTYLHWYLQKPGQSPQLLIYKVSNRVSGVPDRFSGSGSGTDFTLKISRVEAEDVGVYYCSQSTRVPYTFGQGTKLEIK | 643000 AUC | -7620 AUC |
| 1.41 FOC | 2.03 FOC | 152 MFI | 0.00183 µM | 0.0178 µM | 0.0176 µM |  |  |  | AL2p-57 (antibody, V domains shown, Fab and IgG formats under one id) VH: EVQLVQSGAEVKKPGSSVKVSCKASGYAFSSHWMNWVRQAPGQGLEWMGRIYPGEGDTNYAQKFHGRVTITADESTSTAYMELSSLRSEDTAVYYCARLLRNKPGESYAMDYWGQGTLVTVSS VL: DVVMTQTPLSLSVTPGQPASISCRTSQSLVHSNQYTYLHWYLQKPGQSPQLLIYKVSNRVSGVPDRFSGSGSGTDFTLKISRVEAEDVGVYYCSQSTRVPYTFGQGTKLEIK | 506000 AUC | -3560 AUC |
|  |  |  |  |  |  | 6.28 fold over control | 76 FOB | 0.137 µM | AL2p-h21 (antibody, human IgG1, V domains shown, humanized, human IgG1; Fab and IgG formats under one id) VH: QVQLVQSGAEVKKPGASVKVSCKASGYAFSSSWMNWVRQAPGQGLEWMGRIYPGDGDTNYAQKFQGRVTMTRDTSTSTVYMELSSLRSEDTAVYYCARLLRNQPGESYAMDYWGQGTLVTVSS VL: DVVMTQTPLSLSVTPGQPASISCRSSQSLVHSNGYTYLHWYLQKPGQSPQLLIYKVSNRFSGVPDRFSGSGSGTDFTLKISRVEAEDLGVYFCSQSTRVPYTFGQGTKLEIK |  |  |
| 1.49 FOC | 2.08 FOC | 141 MFI | 0.00205 µM | 0.0185 µM | 0.0226 µM |  |  |  | AL2p-55 (antibody, V domains shown, same VH/VL entries as AL2p-56; Fab and IgG formats under one id) VH: EVQLVQSGAEVKKPGSSVKVSCKASGYAFSSHWMNWVRQAPGQGLEWMGRIYPGEGDTNYAQKFHGRVTITADESTSTAYMELSSLRSEDTAVYYCARLLRNKPGESYAMDYWGQGTLVTVSS VL: DVVMTQTPLSLSVTPGQPASISCRTSQSLVHSNAYTYLHWYLQKPGQSPQLLIYKVSNRVSGVPDRFSGSGSGTDFTLKISRVEAEDVGVYYCSQSTRVPYTFGQGTKLEIK | 631000 AUC | -5280 AUC |
|  |  |  |  |  |  | 4.97 fold over control | 87 FOB | 0.193 µM | AL2p-h19 (antibody, human IgG1, V domains shown, humanized, human IgG1; Fab and IgG formats under one id) VH: QVQLVQSGAEVKKPGSSVKVSCKASGYAFSSSWMNWVRQAPGQGLEWMGRIYPGDGDTNYAQKFQGRATITADTSTSTAYMELSSLRSEDTAVYYCARLLRNQPGESYAMDYWGQGTLVTVSS VL: DIVMTQTPLSLSVTPGQPASISCRSSQSLVHSNGYTYLHWYLQKPGQSPQLLIYKVSNRFSGVPDRFSGSGSGTDFTLKISRVEAEDVGVYYCSQSTRVPYTFGQGTKLEIK |  |  |
|  |  |  |  |  |  | 5 fold over control | 61 FOB | 0.325 µM | AL2p-h22 (antibody, human IgG1, V domains shown, humanized, human IgG1; Fab and IgG formats under one id) VH: QVQLVQSGAEVKKPGASVKVSCKASGYAFSSSWMNWVRQAPGQGLEWIGRIYPGDGDTNYAQKFQGRVTMTADTSTSTVYMELSSLRSEDTAVYYCARLLRNQPGESYAMDYWGQGTLVTVSS VL: DVVMTQTPLSLSVTPGQPASISCRSSQSLVHSNGYTYLHWYLQKPGQSPQLLIYKVSNRFSGVPDRFSGSGSGTDFTLKISRVEAEDLGVYFCSQSTRVPYTFGQGTKLEIK |  |  |
|  |  |  |  |  |  | 5.8 fold over control |  |  | AL2p-h29 (antibody, human IgG1, V domains shown) VH: QVQLVQSGAEVKKPGASVKVSCKASGYAFSSSWMNWVRQAPGQGLEWIGRIYPGDGDTNYAQKFQGRATMTADTSTSTAYMELSSLRSEDTAVYYCARLLRNQPGESYAMDYWGQGTLVTVSS VL: DVVMTQTPLSLSVTPGQPASISCRSSQSLVHSNGYTYLHWYLQKPGQSPQLLIYKVSNRFSGVPDRFSGSGSGTDFTLKISRVEAEDLGVYFCSQSTRVPYTFGQGTKLEIK |  |  |
